Entries after “also recorded” stand apart in the source; their conditions may differ.
Experiments:
WT-tPA = assay: Fibrinolysis assay in human plasma derived clots, lysis by WT-tPA; type: biochemical
Method: (§1) Fibrinolysis Assay in Human Plasma Derived Clots
(§2) Clots were formed by placing human plasma (200 μL) in 16-mm diameter tissue culture wells flowed by adding thrombin (0.4 U/mL final concentration). Fibrinolysis was measured as described in Higazi A A et al., Blood (1998), 92(6):2075-83). Briefly, 10 μL tPA or uPA were placed over the plasma clots for 2 hours at 37° C., photographed and the diameter of the wholes were determined.

reteplase = reteplase (Homo sapiens, UniProt P00750); assay: Fibrinolysis assay in human plasma derived clots, lysis by reteplase; type: biochemical; conditions: reteplase 20 nM, mutant 10 nM, FIG. 2B
Method: as §1, §2

plasminogen = molecular target: T1, plasminogen (Homo sapiens, UniProt P00747); assay: Ser481-Ala tPA/plasminogen protein interaction assay by co-immunoprecipitation; type: binding
T1 construct: Glu-plasminogen was prepared from human plasma; from tissue; host or cells: human plasma
Method: Ser^481-Ala tPA/Plasminogen Protein Interaction Assay by Co-Immunoprecipitation
Human Ser^481-Ala tPA and plasminogen, each at 100 nM final concentration in absence or presence of 1 μM uPA or fibrin degradation products, were incubated with goat polyclonal antibody to plasminogen and incubated with Protein A agarose. The protein A agarose beads were separated by centrifugation, washed, and boiled for 5 min. The beads were precipitated by centrifugation and the samples were run on NuPAGE 4-12%. As a control, 80 ng of human Ser^481-Ala tPA was loaded on the gel. The proteins from the gel were transferred onto a PVDF membrane. The membrane was blocked in milk/PBST before incubation for 1 hr with mouse monoclonal antibody to tPA. Subsequently it was washed, incubated with goat anti-mouse IgG-HRP conjugate, washed again, and detected with ECL.

uPA [1] = molecular target: T2, uPA (Homo sapiens, UniProt P00749); assay: Plasminogen activator activity, chromogenic assay without fibrin, activation by uPA; type: biochemical; conditions: FIG. 2D; for plasminogen activation by uPA in the absence of fibrin, in the presence of TA: mutant 100 nM added together with TA
T2 construct: Single-chain urokinase (uPA) was purified, characterized as previously reported; made in house
Method: (§3) Plasminogen Activator Activity
(§4) Plasminogen activator activity was determined by adding tPA (50 nM) or uPA (20 nM), to a reaction mixture containing Glu-plasminogen and the plasmin chromogenic substrate Spectrazyme PL (100 μM) in phosphate-buffered saline (PBS) at 37° C., and the light absorbance at 405 nm was measured continuously over time. The initial velocities of plasmin generation at the different conditions were calculated from the change in the A405 nm over time. The initial velocity of the reaction at each plasminogen concentration was obtained by calculating the change in the rate of A405 over different time intervals and the results were expressed as the change in optical density (ΔOD) per minute, which represents the slope of the initial velocity of plasminogen activation (Higazi A et al., J Biol Chem. (1995), 270(29):17375-80).

[2] = tested on: tPA-/- and uPA-/- mice subjected to CHI; assay: Closed head injury (CHI) model in tPA-/- and uPA-/- mice; type: in vivo, mouse; conditions: WT-tPA or WT-uPA 5 mg/kg plus equimolar dose of mutant
Source text: (§5) Closed Head Injury (CHI) Model
(§6) Head trauma was induced by using a modified weight-drop device, as previously described (Chen Y. et al. (1996) J. Neurotrauma, 13:557-568). Briefly, after induction of ether anesthesia, a midline longitudinal incision was made, the skin was retracted and the skull was exposed. The left anterior frontal area was identified and a Teflon tipped cone (2-mm diameter) was placed 1 mm lateral to the midline, in the midcoronal plane. The head was held in place manually and a 75-g weight was dropped on the cone from a height of 18 cm, resulting in focal injury to the left hemisphere. After trauma, the mice received supporting oxygenation with 95% 02 for no longer than 2 min and were then returned to their cages. In sham controls only anesthesia and skin incision were carried out.

tPA = assay: Plasminogen activator activity, chromogenic assay without fibrin, activation by tPA; type: biochemical, human; conditions: FIG. 2D; for plasminogen activation by tPA in the absence of fibrin, in the presence of TA: mutant 100 nM added together with TA
Method: as §3, §4

uPA [3] = molecular target: T2, uPA; assay: Fibrinolysis assay in human plasma derived clots, lysis by uPA; type: biochemical; conditions: uPA 50 nM; mutant 50 nM; FIG. 2A, 2B
Method: as §1, §2

[4] = tested on: mice treated with Coumadin and subjected to CHI; assay: Closed head injury (CHI) in mice anticoagulated with warfarin (Coumadin); type: in vivo, mouse; conditions: WT mice, INR 2.5; tPA-S481A 1 mg/kg immediately after TBI; Hgb at 2 or 8 hrs; FIG. 6C
Source text: as §5, §6

NMDA-Rs = assay: Activation of NMDA-Rs by WT-tPA
WT tPA = molecular target: T3, WT tPA (Homo sapiens, UniProt P00750); assay: Fibrinolysis assay in clots from fresh whole human blood monitored by thromboelastography (TEG), lysis by WT tPA; type: biochemical; conditions: WT tPA 10 nM; 50 or 500 nM tPA-S481A; FIG. 2C
T3 construct: purchased Genentech (South San Francisco, Calif.)
Method: (§7) Fibrinolysis Assay in Blood Clots Derived from Fresh Whole Human Blood
(§8) Clot viscoelastic properties were assessed by thromboelastography (TEG®, Haemoscope) and rotational thromboelastometry (ROTEM®, Pentapharm). Both systems use a vertical pin within a cup that contains the WB sample. In TEG®, the cup oscillates and the pin is stationary whereas in ROTEM®, the cup is stationary while the pin oscillates. As a clot forms between the cup and the pin, the reduction in transmitted rotation from the cup to the pin (TEG®) or impedance to the oscillatory movement of the pin (ROTEM®) is detected and a trace is generated.

WT mice subjected to CHI = assay: Closed head injury (CHI) model of TBI in WT mice; type: in vivo, mouse
Method: Eight to twelve weeks old C57 mice obtained from Harlan, Israel. Mice were administered standard laboratory chow and water ad libitum, and kept in controlled temperature and light conditions. Animal experiments were carried out according to the guidelines of the Hebrew University-Institutional Committee for Care and Use of Laboratory Animals, and with the committee's approval.
as §5, §6

uPA [5] = molecular target: T2, uPA; assay: Fibrinolysis assay in clots from fresh whole human blood monitored by thromboelastography (TEG), lysis by uPA; type: biochemical; conditions: uPA 10 nM; 50 or 500 nM tPA-S481A; FIG. 2C
Method: as §7, §8

WT-tPA, sequence (P00750 36-562): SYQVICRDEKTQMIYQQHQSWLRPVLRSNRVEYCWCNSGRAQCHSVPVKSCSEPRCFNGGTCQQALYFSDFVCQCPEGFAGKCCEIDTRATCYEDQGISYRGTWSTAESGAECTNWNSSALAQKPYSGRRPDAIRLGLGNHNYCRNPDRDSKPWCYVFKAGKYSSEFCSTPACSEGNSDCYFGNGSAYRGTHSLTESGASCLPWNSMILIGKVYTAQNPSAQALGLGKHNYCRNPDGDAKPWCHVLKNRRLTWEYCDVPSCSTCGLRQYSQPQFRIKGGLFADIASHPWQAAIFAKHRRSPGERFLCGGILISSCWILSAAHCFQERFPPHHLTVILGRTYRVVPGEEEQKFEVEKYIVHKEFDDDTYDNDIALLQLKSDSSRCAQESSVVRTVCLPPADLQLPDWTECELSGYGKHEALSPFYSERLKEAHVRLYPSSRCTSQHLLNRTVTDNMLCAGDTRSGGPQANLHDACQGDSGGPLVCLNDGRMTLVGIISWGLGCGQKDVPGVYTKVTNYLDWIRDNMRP
T3 sequence (P00750 36-562): as above

B1: tPA-S^481A: catalytically inactive human tPA variant, Ser481 substituted to Ala; SEQ ID NO. 1 (SEQ ID NO. 12 with N-terminal RS) (protein, listed as Homo sapiens)
chain: GARSYQVICRDEKTQMIYQQHQSWLRPVLRSNRVEYCWCNSGRAQCHSVPVKSCSEPRCFNGGTCQQALYFSDFVCQCPEGFAGKCCEIDTRATCYEDQGISYRGTWSTAESGAECTNWNSSALAQKPYSGRRPDAIRLGLGNHNYCRNPDRDSKPWCYVFKAGKYSSEFCSTPACSEGNSDCYFGNGSAYRGTHSLTESGASCLPWNSMILIGKVYTAQNPSAQALGLGKHNYCRNPDGDAKPWCHVLKNRRLTWEYCDVPSCSTCGLRQYSQPQFRIKGGLFADIASHPWQAAIFAKHRRSPGERFLCGGILISSCWILSAAHCFQERFPPHHLTVILGRTYRVVPGEEEQKFEVEKYIVHKEFDDDTYDNDIALLQLKSDSSRCAQESSVVRTVCLPPADLQLPDWTECELSGYGKHEALSPFYSERLKEAHVRLYPSSRCTSQHLLNRTVTDNMLCAGDTRSGGPQANLHDACQGDAGGPLVCLNDGRMTLVGIISWGLGCGQKDVPGVYTKVTNYLDWIRDNMRP
- potency as inhibitor of fibrinolysis compared with TA (WT-tPA; TA tested at its maximal inhibitory concentration, FIG. 2B): more potent inhibitors of fibrinolysis than TA
- lysis of human plasma derived clots by WT-tPA (WT-tPA; WT-tPA 20 nM, mutant 50 nM, FIG. 2A, 2B): inhibited lysis
- clot lysis induced by reteplase (reteplase): inhibit the clot lysis induced by reteplase
- clot lysis induced by reteplase (reteplase; listed as tPA^Ser481Ala): inhibit the fibrinolysis
- binding to plasminogen (complex formation) (plasminogen; in the absence of fibrin, 100 nM each): no complexes were formed
- binding to plasminogen (complex formation) (plasminogen; in the presence of fibrin, 100 nM each, immunoprecipitated with anti-plasminogen, detected with anti-tPA): binds to plasminogen only in the presence of fibrin; also recorded: formed a stable complex
- binding to plasminogen (complex formation) (plasminogen; with fibrin in the presence of 1 μM uPA): inhibited by uPA
- plasminogen activation by uPA in the absence of fibrin, in the presence of TA (uPA [1]): inhibited the activation of plasminogen by uPA
- plasminogen activation by uPA in the absence of fibrin, in the presence of TA (uPA [1]; listed as tPA^Ser481Ala): inhibit plasminogen activation
- plasminogen activation by uPA in the absence of fibrin (change in OD per minute) (uPA [1]; plasminogen 500 nM, uPA 20 nM, mutants 100 nM or TA 200 nM alone): Neither tPA-S^481A nor tPA-S^481A-DS inhibited; also recorded: had no effect
- expansion of post traumatic ICH in knock-out mice given exogenous WT-tPA or WT-uPA [2]: inhibited the expansion of the post traumatic ICH
- plasminogen activation by tPA in the absence of fibrin, in the presence of TA (tPA): inhibited the plasminogen activation induced by tPA
- plasminogen activation by tPA in the absence of fibrin, in the presence of TA (tPA; listed as tPA^Ser481Ala): inhibit plasminogen activation
- plasminogen activation by tPA in the absence of fibrin (change in OD per minute) (tPA; plasminogen 500 nM, WT-tPA 50 nM, mutants 100 nM or TA 200 nM alone): Neither tPA-S^481A nor tPA-S^481A-DS inhibited; also recorded: had no effect
- lysis of human plasma derived clots by uPA (uPA [3]): inhibited lysis
- post-traumatic intracerebral hemorrhage (brain hemoglobin) in warfarin-anticoagulated mice [4]: almost totally inhibited
- activation of NMDA-Rs by WT-tPA (NMDA-Rs): inhibited activation of NMDA-Rs by WT-tPA
- lysis of clots from fresh whole human blood monitored by TEG, by WT tPA (WT tPA): inhibited lysis
- intracerebral hemorrhage increased by injected WT-tPA post CHI (WT mice subjected to CHI; WT mice given WT-tPA 5 mg/kg immediately after CHI plus equimolar mutant): could be inhibited
- plasma levels of d-Dimers post CHI (WT mice subjected to CHI; WT mice, 1 mg/kg IV, measured 2 hours after CHI, FIG. 4A, 1 mg/kg): significantly attenuated the increase in d-Dimers; also recorded: inhibited the formation of d-Dimers
- platelet counts / thrombocytopenia post CHI (WT mice subjected to CHI; WT mice, 1 mg/kg IV, measured 2 hours after CHI, FIG. 4B, 1 mg/kg): prevented the development of thrombocytopenia; also recorded: inhibited the development of thrombocytopenia
- CSF fibrinolytic activity post CHI (WT mice subjected to CHI; WT mice, IV after CHI, CSF obtained 2 hours after CHI, tested on plasma derived clots): inhibited CSF fibrinolytic activity
- intracerebral hemorrhage (MRI, extravasation of Hgb) post CHI (WT mice subjected to CHI; WT mice, IV immediately after or 2 hrs after CHI, Hgb at 2 or 8 hrs, MRI at 24 hrs): significantly attenuated the expansion of intracerebral hemorrhage; also recorded: inhibited
- inhibition of intracerebral hemorrhage compared with combination of TA and aprotinin (WT mice subjected to CHI; combination in optimal concentrations, FIG. 3B): comparable to the inhibition induced by a combination of TA and aprotinin
- neuroprotection (neurological severity score, NSS) (WT mice subjected to CHI; given 2 hrs after CHI, FIG. 5): the difference in neuroprotection provided by the two tPA variants vanished
- neuroprotection (neurological severity score, NSS, 24 hours after CHI) (WT mice subjected to CHI; given IV immediately after CHI, 1 mg/kg, FIG. 5): exerts neuroprotection
- potency as inhibitor of intracerebral hemorrhage compared with TA or aprotinin (WT mice subjected to CHI; optimal concentrations of TA or aprotinin, FIG. 3B): more potent inhibitors of intracerebral hemorrhage than optimal concentrations of TA or aprotinin
- lysis of clots from fresh whole human blood monitored by TEG, by uPA (uPA [5]): inhibited lysis

From patent US10188706B2, “Plasminogen activator mutants as anti-fibrinolytic agents” (HADASIT MEDICAL RESEARCH SERVICES & DEVELOPMENT LIMITED, priority 2012, dated 2019)
